This is an account of results in patent US20250250357A1 (NANJING ZAIMING PHARMACEUTICAL, published 2025).

Assay [1] concerns the target T1, human MSLN-R1-his protein (human, UniProt Q13421 296-390).
T1 construct: Region 1 of human mesothelin, made in HEK293E cells, His-tagged; also called human MSLN-R1 protein; hMSLN-R1-his; not shown: His tag
T1 chain: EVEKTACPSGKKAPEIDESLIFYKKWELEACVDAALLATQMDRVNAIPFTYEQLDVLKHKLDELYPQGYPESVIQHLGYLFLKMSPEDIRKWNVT
Briefly: ELISA on coated MSLN-R1; antibody 1 nM.

The target of assay [2] is T1, human MSLN-R1-his protein. Briefly: ELISA on coated MSLN-R1; antibody 0.001 nM. Background: ELISA stands for enzyme-linked immunosorbent assay.
The target in assay [3] is T1, human MSLN-R1-his protein. Briefly: ELISA on coated MSLN-R1; antibody 100 nM.
Description: (§1) The plate was sealed with a plastic film and incubated at 4° C. overnight. The next day, the plate was washed twice with PBST, and a blocking buffer [PBS+2% (w/w) BSA] was added for blocking at room temperature for 2 h. The blocking buffer was discarded, and a chimeric antibody or negative control antibody serially diluted from 100 nM was added at 50 μL/well. After incubation at 37° C. for 2 h, the plate was washed 3 times with PBST. […] After incubation at 37° C. for 2 h, the plate was washed 5 times with PBST. A TMB substrate was added at 50 μL/well for incubation at room temperature for 5-10 min, and then a stop solution (1.0 N HCl) was added at 50 μL/well.
Assay [4] addresses T2, human MSLN-R2-his protein (human, UniProt Q13421 391-486).
T2 construct: Region 2 of human mesothelin, made in HEK293E cells, His-tagged; also called human MSLN-R2 protein; hMSLN-R2-his; not shown: His tag
Briefly: ELISA on coated MSLN-R2; antibody 1 nM.

In assay [5] the target is T1, human MSLN-R1-his protein. The assay can be described thus: ELISA on coated MSLN-R1; antibody 0.01 nM.
The target of assay [6] is T2, human MSLN-R2-his protein. The assay can be described thus: ELISA on coated MSLN-R2; antibody 100 nM.
Description: as §1
Assay [7] deals with T3, human MSLN-R3-his protein (human, UniProt Q13421 487-598).
T3 construct: Region 3 of human mesothelin, made in HEK293E cells, His-tagged; also called human MSLN-R3 protein; hMSLN-R3-his; not shown: His tag
T3 sequence (Q13421 495-606): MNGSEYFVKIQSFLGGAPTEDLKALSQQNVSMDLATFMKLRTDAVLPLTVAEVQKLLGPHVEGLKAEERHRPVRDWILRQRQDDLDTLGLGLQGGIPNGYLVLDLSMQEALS
The assay can be described thus: ELISA on coated MSLN-R3; antibody 1 nM.

Assay [8] deals with T3, human MSLN-R3-his protein. The assay can be described thus: ELISA on coated MSLN-R3; antibody 0.1 nM.
Description: as §1
For assay [9], the target named is T2, human MSLN-R2-his protein. Briefly: ELISA on coated MSLN-R2; antibody 0.0001 nM.
Description: as §1
Assay [10] deals with T2, human MSLN-R2-his protein. The assay can be described thus: ELISA on coated MSLN-R2; antibody 0.01 nM.
Description: as §1
Assay [11] concerns the target T1, human MSLN-R1-his protein. The assay can be described thus: ELISA on coated MSLN-R1; antibody 10 nM.
Description: as §1
The target of assay [12] is T3, human MSLN-R3-his protein. Briefly: ELISA on coated MSLN-R3; antibody 0.0001 nM.
Description: as §1
For assay [13], the target named is T1, human MSLN-R1-his protein. Briefly: ELISA on coated MSLN-R1; no antibody (blank).
Description: as §1
The target of assay [14] is T1, human MSLN-R1-his protein. The assay can be described thus: ELISA on coated MSLN-R1; antibody 0.1 nM.
Description: as §1
Assay [15] deals with T2, human MSLN-R2-his protein. The assay can be described thus: ELISA on coated MSLN-R2; antibody 0.001 nM.
Description: as §1
The target in assay [16] is T2, human MSLN-R2-his protein. Briefly: ELISA on coated MSLN-R2; antibody 0.1 nM.
For assay [17], the target named is T1, human MSLN-R1-his protein. The assay can be described thus: ELISA on coated MSLN-R1; antibody 0.0001 nM.
Description: as §1
Assay [18] addresses T3, human MSLN-R3-his protein. The assay can be described thus: ELISA on coated MSLN-R3; antibody 0.01 nM.
Description: as §1
Assay [19] has as its target T3, human MSLN-R3-his protein. The assay can be described thus: ELISA on coated MSLN-R3; antibody 10 nM.
Description: as §1
The target of assay [20] is T3, human MSLN-R3-his protein. Briefly: ELISA on coated MSLN-R3; no antibody (blank).
Assay [21] has as its target T2, human MSLN-R2-his protein. Briefly: ELISA on coated MSLN-R2; antibody 10 nM.
Description: as §1
The target in assay [22] is T3, human MSLN-R3-his protein. Briefly: ELISA on coated MSLN-R3; antibody 100 nM.
Description: as §1
Assay [23] concerns the target T3, human MSLN-R3-his protein. The assay can be described thus: ELISA on coated MSLN-R3; antibody 0.001 nM.
For assay [24], the target named is T2, human MSLN-R2-his protein. The assay can be described thus: ELISA on coated MSLN-R2; no antibody (blank).
Description: as §1

T2 sequence (Q13421 other isoform, or with tags, fused parts or gaps): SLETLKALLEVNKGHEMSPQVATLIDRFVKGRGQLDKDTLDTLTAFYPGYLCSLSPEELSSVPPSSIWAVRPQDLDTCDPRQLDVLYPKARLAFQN

B1: S009-F8-31.22 (antibody, human IgG1, kappa, V domains shown)
VH: EVQLVESGGDLVKPGGSLKLSCAASGFTFSTYGMSWVRQTPDKRLEWVATISSGGSYTYYPDSLKGRFTISRDNAKNTLYLQMSSLKSEDTAMYYCARHEGYYYGKDYWGQGTTLTVSS
VL: DIVLTQSPATLSVTPGDSVSLSCRASHSISNNLHWYQQKSHESPRLLIKYASQSISGIPSKFSGSGSGTDFTLSINSVETEDFGMYFCQQTNSWPLTFGAGTKLELKR
With B1, the OD450 in assay [1] was 2.05 OD450; in assay [2], 0.19 OD450; in assay [3], 2.12 OD450; in assay [4] it was 0.04 OD450; in [5], 0.8 OD450; in [6] it was 0.08 OD450. Also, the OD450 is 0.05 OD450 in [7]; 0.04 OD450 in assay [8]; 0.05 OD450 in assay [9]; 0.04 OD450 in [10]; 2.17 OD450 in assay [11]; 0.04 OD450 in assay [12]. In addition, the OD450 was determined as 0.05 OD450 in assay [13]; 1.95 OD450 in [14]; 0.04 OD450 in assay [15]; 0.05 OD450 in [16]; 0.08 OD450 in assay [17]; 0.04 OD450 in assay [18]. In addition, the OD450 worked out at 0.07 OD450 in [19]; 0.05 OD450 in [20]; 0.05 OD450 in assay [21]; 0.13 OD450 in [22]; 0.04 OD450 in assay [23]; 0.05 OD450 in assay [24].

B2: S009-F8-36.12 (antibody, human IgG1, kappa, V domains shown)
VH: EVQLQQSGPELVKPGASVKISCKASGYTFTDYYMNWVKQSHGKSLEWIGDINPNNGGTSYNQKFKGKATLTVDKSSSTAYMELRSLTSEDSAVYYCASWGYGSSSRGYFDYWGQGTTLTVSS
VL: QIVLSQSPAILSASPGEKVTMTCRASSSVSYMHWYQQKPGSSPKPWIYATSNLASGVPARFSGSGSGTSYSLTISRVEAEDAATYYCQQWSSNPWTFGGGTKLEIKR
Take B2: the OD450 in assay [1] worked out at 0.04 OD450; in assay [2] it was 0.04 OD450; in assay [3], 0.05 OD450; in assay [4], 0.04 OD450; in [5], 0.04 OD450; in [6] it was 0.05 OD450. Moreover, the OD450 in assay [7] was determined as 0.05 OD450; in [8], 0.04 OD450; in assay [9], 0.04 OD450; in [10] it was 0.04 OD450; in [11], 0.04 OD450; in assay [12], 0.04 OD450. Also, the OD450 in [13] stood at 0.03 OD450; in [14] it was 0.04 OD450; in assay [15], 0.04 OD450; in [16] it was 0.03 OD450; in assay [17], 0.04 OD450; in assay [18] it was 0.04 OD450. For the same molecule, the OD450 in assay [19] came to 0.14 OD450; in assay [20] it was 0.04 OD450; in [21] it was 0.04 OD450; in assay [22], 1.19 OD450; in assay [23] it was 0.04 OD450; in [24] it was 0.04 OD450.

B3: S009-F8-32.3 (antibody, human IgG1, kappa, V domains shown)
VH: QVQLKESGPGLVAPSQSLSITCTVSGFSLSSYAISWVRQPPGKGLEWLGVIWTGGGTNYNSALKSRLSISKDNSKSQVFLKMNSLQTDDTARFYCARNNYGRLDYAMDYWGQGTSVTVSS
VL: DVVMTQTPLSLPVSLGDQASISCRSSQSLVHGNGNTYLHWYLQKPGQSPKLLIYKVSNRFSGVPDRFSGSGSGTDFTLKISRVETEDLGVYFCSQSTHVPFTFGSGTKLEIKR
As for B3, the OD450 in [1] stood at 2.6 OD450; in assay [2], 0.11 OD450; in [3], 2.81 OD450; in assay [4], 0.04 OD450; in [5], 0.42 OD450; in assay [6], 0.07 OD450. The OD450 in [7] came to 0.04 OD450; in assay [8] it was 0.04 OD450; in assay [9], 0.04 OD450; in assay [10], 0.04 OD450; in assay [11], 2.79 OD450; in [12], 0.04 OD450. In addition, the OD450 in assay [13] was determined as 0.04 OD450; in assay [14], 1.64 OD450; in assay [15], 0.04 OD450; in assay [16], 0.04 OD450; in assay [17] it was 0.06 OD450; in assay [18] it was 0.04 OD450. Besides, the OD450 in [19] came to 0.04 OD450; in assay [20] it was 0.04 OD450; in assay [21], 0.05 OD450; in assay [22] it was 0.07 OD450; in [23], 0.04 OD450; in [24] it was 0.04 OD450.

B4: S009-F8-29.1 (antibody, human IgG1, kappa, V domains shown)
VH: QVQLQQSGAELARPGASVKMSCKASGYTFISYTMHWVKQRPGQGLEWIGYINPSSGYTKYNQKFKDKATLTADKSSSTAYMQLNSLTSEDSAVYYCARYYSNPDYYAMDYWGQGTSVTVSS
VL: QIVLTQSPAIMSASPGEKVTITCSASSSVSYMHWFQQKPGTSPKLWIYSTSNLASGVPARFSGSGSGTSYSLTISRMEAEDAATYYCQQRSSYPLTFGGGTKLELKR
For B4, the OD450 came out at 0.04 OD450 in assay [1]; 0.04 OD450 in assay [2]; 0.05 OD450 in [3]; 0.04 OD450 in assay [4]; 0.04 OD450 in [5]; 0.06 OD450 in assay [6]. Also, the OD450 in assay [7] was 0.06 OD450; in [8], 0.04 OD450; in assay [9], 0.05 OD450; in [10] it was 0.04 OD450; in assay [11] it was 0.04 OD450; in assay [12] it was 0.06 OD450. In addition, the OD450 in assay [13], in assay [14], in assay [15], in [16], in assay [17] and in assay [18] was 0.04 OD450 in each case. Moreover, the OD450 came to 0.06 OD450 in assay [19]; 0.04 OD450 in assay [20]; 0.04 OD450 in assay [21]; 0.1 OD450 in assay [22]; 0.15 OD450 in assay [23]; 0.04 OD450 in [24].

B5: S009-F8-33.12 (antibody, human IgG1, kappa, V domains shown)
VH: EVQLQQSGAELVKPGASVKLSCTASAFNIKDYYMHWVKQRTEQGLEWIGRIDPEDGETKYAPKFQGKATITADTSSNTAYLQLSSLTSEDTAVYYCASGSGTGAMDYWGQGTSVTVSS
VL: DIVMTQSQKFMSTSVGDRVSITCKASQNVRTAVGWYQQKPGQSPKALIYLASNRHTGVPDRFTGSGSGTDFTLTISNVQSEDLADYFCLQHWNSPYTFGGGTKLVIKR
On to B5, for which the OD450 worked out at 2.45 OD450 in assay [1]; 0.11 OD450 in assay [2]; 2.64 OD450 in assay [3]; 0.04 OD450 in assay [4]; 0.43 OD450 in [5]; 0.05 OD450 in assay [6]. In addition, the OD450 stood at 0.04 OD450 in assay [7]; 0.03 OD450 in assay [8]; 0.04 OD450 in assay [9]; 0.04 OD450 in assay [10]; 2.66 OD450 in [11]; 0.04 OD450 in assay [12]. Also, the OD450 turned out to be 0.04 OD450 in assay [13]; 1.6 OD450 in assay [14]; 0.04 OD450 in assay [15]; 0.04 OD450 in assay [16]; 0.05 OD450 in assay [17]; 0.04 OD450 in assay [18]. Also, the OD450 was found to be 0.05 OD450 in assay [19]; 0.03 OD450 in assay [20]; 0.04 OD450 in [21]; 0.06 OD450 in [22]; 0.04 OD450 in assay [23]; 0.04 OD450 in [24].
